From publication PMC8476561 (2021)

Target: SARS-CoV-2 RBD (wild type) (SARS-CoV-2, UniProt P0DTC2 319-541)
Test: SPR

B1: Mouse angiotensin-converting enzyme 2 (receptor)
chain: SLTEENAKTFLNNFNQEAEDLSYQSSLASWNYNTNITEENAQKMSEAAAKWSAFYEEQSKTAQSFSLQEIQTPIIKRQLQALQQSGSSALSADKNKQLNTILNTMSTIYSTGKVCNPKNPQECLLLEPGLDEIMATSTDYNSRLWAWEGWRAEVGKQLRPLYEEYVVLKNEMARANNYNDYGDYWRGDYEAEGADGYNYNRNQLIEDVERTFAEIKPLYEHLHAYVRRKLMDTYPSYISPTGCLPAHLLGDMWGRFWTNLYPLTVPFAQKPNIDVTDAMMNQGWDAERIFQEAEKFFVSVGLPHMTQGFWANSMLTEPADGRKVVCHPTAWDLGHGDFRIKMCTKVTMDNFLTAHHEMGHIQYDMAYARQPFLLRNGANEGFHEAVGEIMSLSAATPKHLKSIGLLPSDFQEDSETEINFLLKQALTIVGTLPFTYMLEKWRWMVFRGEIPKEQWMKKWWEMKREIVGVVEPLPHDETYCDPASLFHVSNDYSFIRYYTRTIYQFQFQEALCQAAKYNGSLHKCDISNSTEAGQKLLKMLSLGNSEPWTKALENVVGARNMDVKPLLNYFQPLFDWLKEQNRNSFVGWNTEWSPYADQSIKVRISLKSALGANAYEWTNNEMFLFRSSVAYAMRKYFSIIKNQTVPFLEEDVRVSDLKPRVSFYFFVTSPQNVSDVIPRSEVEDAIRMSRGRINDVFGLNDNSLEFLGIHPTLEPPYQPPV
Kd: > 1 mM
